Measured values: patent US20040043438A1
Residue numbers refer to the chain shown, from its start. Blank lines part the entries; values can stand above or below the binder they belong to.

How the values were obtained:
[1] = biological target: specific IgE bound to the surface of human basophils from birch pollen allergic patients; experiment: cell-based or functional assay
[2] = biological target: serum IgE from a pool of birch allergic patients; experiment: fluid-phase IgE-inhibition assay; competes with biotinylated Bet v 1.2801 for pooled serum IgE
[3] = biological target: serum IgE from a pool of birch allergic patients; experiment: fluid-phase IgE-inhibition assay; competes with biotinylated Bet v 1 no. 2801 for pooled serum IgE

histamine release in human basophil: reduction of potency against Bet v 1.2801 [1]: 3 to 10 fold
factor by which the affinity is lowered against Bet v 1.2801 [2]: 3 to 4 fold
B1: Mutant Bet v 1 (2628) (protein)
chain: GVFNVETETTSVIPAARLFKAFILDGDNLFPKVAPQAISSVENISGNGGPGTIKKISFPEGFPFNYVKDRVDEVDHTNFKYNYSVIEGGPIGDTLESISNEIKIVATPDGGSILKISNKYHTKGDHEVKAEQVEASKEMGETLLRAVESYLLAHSDAYN

amount to reach 80% inhibition [3]: 400 ng
factor of decrease against recombinant Bet v 1 (at 80% inhibition) [3]: 20 fold
factor of decrease in affinity against recombinant Bet v 1 (at 50% inhibition) [3]: 5 fold
B2: Bet v 1 (Asn28Thr, Lys32Gln, Glu45Ser, Pro108Gly) mutant (protein)
chain: B1 chain with V5Y, N28T, K32Q, N65K, S97K, P108G, E134K
